Values joined by “and” are separate entries in the source; they are usually repeats but may differ in a detail not shown here. Equal entries are not always repeated.
Assays:
P. falciparum ACP = experiment: AcpH qualitative CP activity, gel-based, crypto-CP; format: biochemical; conditions: FAS; crypto-CP (coumarin-PPant), overnight, 37° C., 1 μM AcpH
Protocol: Unless otherwise noted, all coumarin-PPant labeling proceeded as follows: apo-carrier protein or peptide at 50-200 μM were labeled in 50 mM Na-HEPES pH 7.5, 10 mM MgCl2, 8 mM ATP, 0.1 μM MBP-CoaA/D/E, 0.1 μM native Sfp, and 1.1 equivalents of coumarin-pantetheine at 37° C. overnight. Crypto-protein samples were repurified using standard IMAC techniques in pH 8 lysis buffer with Ni-NTA resin, and spin-concentrated/buffer exchanged to remove imidazole and concentrate with 0.5 mL 3 kDa MWCO cellulose filters. Crypto-peptide samples were purified with HPLC, lyophilized, and redissolved in 50 mM TrisCl pH 8.0 prior to analysis.
Following AcpH treatment, an equal volume of 2×SDS-PAGE loading dye was added to crypto-carrier proteins samples and heated 5 min at 90° C., and run on 12% or 15% SDS-PAGE. Gels were fixed in 50/40/10% water/methanol/acetic acid for 30 minutes, and washed with water three times before UV imaging. Holo-carrier protein reactions were analyzed with Urea-PAGE as previously described.^6 All protein gels were Coomassie stained for evaluating total protein. Crypto-peptides were evaluated on Urea-PAGE, and were imaged immediately after running with no gel fixing.

M. tuberculosis MAS = experiment: AcpH qualitative CP activity, gel-based, crypto-CP; format: biochemical; conditions: FAS (FAS/PKS hybrid), overnight, 37° C., 1 μM AcpH
A. parasiticus PksA = molecular target: T1, A. parasiticus PksA (Aspergillus parasiticus, UniProt Q12053); experiment: AcpH qualitative CP activity, gel-based, crypto-CP; format: biochemical; conditions: PKS; crypto-CP (coumarin-PPant), overnight, 37° C., 1 μM AcpH
T1 construct: made in house

L majuscula JamC = molecular target: T2, L majuscula JamC (Moorena producens, UniProt Q6E7K7); experiment: AcpH qualitative CP activity, gel-based, crypto-CP; format: biochemical; conditions: PKS; crypto-CP (coumarin-PPant), overnight, 37° C., 1 μM AcpH
T2 construct: made in house
Protocol: (§1) Unless otherwise noted, all coumarin-PPant labeling proceeded as follows: apo-carrier protein or peptide at 50-200 μM were labeled in 50 mM Na-HEPES pH 7.5, 10 mM MgCl2, 8 mM ATP, 0.1 μM MBP-CoaA/D/E, 0.1 μM native Sfp, and 1.1 equivalents of coumarin-pantetheine at 37° C. overnight. Crypto-protein samples were repurified using standard IMAC techniques in pH 8 lysis buffer with Ni-NTA resin, and spin-concentrated/buffer exchanged to remove imidazole and concentrate with 0.5 mL 3 kDa MWCO cellulose filters.
(§2) Following AcpH treatment, an equal volume of 2×SDS-PAGE loading dye was added to crypto-carrier proteins samples and heated 5 min at 90° C., and run on 12% or 15% SDS-PAGE. Gels were fixed in 50/40/10% water/methanol/acetic acid for 30 minutes, and washed with water three times before UV imaging. Holo-carrier protein reactions were analyzed with Urea-PAGE as previously described.^6 All protein gels were Coomassie stained for evaluating total protein.

L majuscula JamF = experiment: AcpH qualitative CP activity, gel-based, crypto-CP; format: biochemical; conditions: PKS; crypto-CP (coumarin-PPant), overnight, 37° C., 1 μM AcpH
P. agglomerans AdmI = experiment: AcpH qualitative CP activity, gel-based, crypto-CP; format: biochemical; conditions: PKS; crypto-CP (coumarin-PPant), overnight, 37° C., 1 μM AcpH
Protocol: as §1, §2

A. orientalis CepK = experiment: AcpH qualitative CP activity, gel-based, crypto-CP; format: biochemical; conditions: NRPS; crypto-CP (coumarin-PPant), overnight, 37° C., 1 μM AcpH
P. fluorescens PltL = experiment: AcpH qualitative CP activity, gel-based, crypto-CP; format: biochemical
Protocol: as §1, §2

YbbR13 = experiment: AcpH activity with modified ybbR peptide, qualitative; format: biochemical; conditions: coumarin-PPant labeled
crypto-FITC-YbbR (3) = molecular target: T3, crypto-FITC-YbbR (3) (Bacillus subtilis, UniProt O34659); experiment: FRET-quench microwell AcpH kinetics; format: biochemical; conditions: 37° C., FRET-quench microwell plate assay, [AcpH] 1 μm
T3 construct: made in house; host or cells: enzymatic labelling of FITC-ybbR peptide with Sfp and rhodamine-CoA
T3 sequence (O34659 whole entry, looked up): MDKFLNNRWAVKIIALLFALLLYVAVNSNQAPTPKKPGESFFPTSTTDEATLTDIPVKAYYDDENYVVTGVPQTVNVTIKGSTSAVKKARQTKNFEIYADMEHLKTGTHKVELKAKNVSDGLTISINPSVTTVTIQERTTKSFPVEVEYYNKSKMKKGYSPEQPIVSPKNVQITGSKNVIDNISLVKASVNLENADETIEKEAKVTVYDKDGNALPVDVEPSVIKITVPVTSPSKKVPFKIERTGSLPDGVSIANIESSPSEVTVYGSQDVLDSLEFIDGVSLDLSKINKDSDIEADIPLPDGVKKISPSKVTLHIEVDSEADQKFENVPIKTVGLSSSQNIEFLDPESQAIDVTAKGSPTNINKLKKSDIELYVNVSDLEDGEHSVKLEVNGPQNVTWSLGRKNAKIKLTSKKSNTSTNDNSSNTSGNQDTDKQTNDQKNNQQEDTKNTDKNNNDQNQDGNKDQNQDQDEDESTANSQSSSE
Protocol: Preparation of rhodamine-labeled FITC-ybbR proceeded via reaction of 200 μM FITC-ybbR with 200 μM rhodamine WT-CoA synthesized as described previously^33 with 1 μM Sfp in 50 mM HEPES pH 7.5 and 10 mM MgCl2 for 2 hours at 37° C.
Rhodamine-labeled FITC-Ybbr as well as standard 1:1 apo-FITC-ybbR:rhodamine-CoA was subjected to an 11-point serial dilution in 50 mM TrisCl pH 8.0 to achieve final concentrations of 400-0.4 μM. […] Total reaction volumes were 50 μL and utilized a 96-well Costar 3694 plate (Corning, Lowell, Mass.). Following mixing, reactions were centrifuged for 2 minutes at 1500 rpm, and incubated at 37° C. over 4 hours in a HTS 7000 plus Bioassay Reader (Perkin Elmer, Waltham, Mass.) in kinetic mode. Comparison of enzyme reactions to buffer blank and 1:1 apo-FITC-ybbR:rhodamine-CoA standard allowed calculation of product formation and determination of Michaelis-Menten kinetics using GraphPad Prism.

[1] = tested on: ACP fusion proteins (MBP, GFP, Lux-ACP); experiment: AcpH label removal from rhodamine-labeled ACP fusion proteins; format: biochemical; conditions: N-terminal MBP, C-terminal GFP, N-terminal luciferase (Lux-ACP) fusions
Protocol: Purified apo-MBP-PaACP at 200 μM was labeled with 1 mM rhodamine-CoA and 13 μM native Sfp in a reaction volume of 20 μL for 3 hours at 37° C. Purified apo-GFP-ACP at 150 μM was labeled with 1 mM rhodamine-CoA and 7 μM native Sfp in a reaction volume of 35 μL for 3 hours at 37° C. Purified apo-Lux-ACP at 12 μM was labeled with 50 μM rhodamine-CoA and 3 μM native Sfp for 1 hour at 37° C. Fusion ACPs were then re-purified from excess rhodamine-CoA and native Sfp using Ni-NTA resin, and buffer exchanged and concentrated using 10 kDa MWCO 0.5 mL Amicon spin filters (Millipore). Label removal of MBP-ACP and GFP-ACP proceeded with 4 μL of the concentrated crypto-fusion ACPs with 10 μM AcpH in 10 μL of AcpH reaction buffer for 3 hours at 37° C. 6 μM crypto-Lux-ACP was reacted with 5 μM AcpH for 3 hours at 37° C. AcpH reaction samples were run immediately afterwards on Urea-PAGE (MBP-ACP and GFP-ACP) or SDS-PAGE (Lux-ACP) with no further purification.

M. tuberculosis AcpM = M. tuberculosis AcpM (Mycobacterium tuberculosis, UniProt P9WQF3); conditions: FAS; crypto-CP (coumarin-PPant), overnight, 37° C., 1 μM AcpH
V. cholerae VibB = molecular target: T4, V. cholerae VibB (Vibrio cholerae serotype O1, UniProt P0C6D3); conditions: NRPS; crypto-CP (coumarin-PPant), overnight, 37° C., 1 μM AcpH
T4 sequence (P0C6D3 whole entry, looked up): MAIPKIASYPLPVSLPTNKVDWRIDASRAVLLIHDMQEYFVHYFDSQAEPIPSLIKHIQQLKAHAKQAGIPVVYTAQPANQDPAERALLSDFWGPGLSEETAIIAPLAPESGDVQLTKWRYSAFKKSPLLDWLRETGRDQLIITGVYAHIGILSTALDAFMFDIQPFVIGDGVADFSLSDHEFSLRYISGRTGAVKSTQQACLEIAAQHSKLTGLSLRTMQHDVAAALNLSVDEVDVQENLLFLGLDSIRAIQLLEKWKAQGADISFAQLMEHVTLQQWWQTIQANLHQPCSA

holo-ACP (E. coli) = holo-ACP (E. coli) (Escherichia coli, UniProt P0A6A8); conditions: 37° C., HPLC detection, [AcpH] 1 (CyAcpH 0.005) μm
Protocol: Holo-E. coli AcpP was prepared as a serial dilution in 50 mM TrisCl, 250 mM NaCl, 30 mM MgCl2, and 2 mM MnCl2. […] CyAcpH was prepared at 10 nM in the same AcpH buffer. […] Reactions were transferred to prewarmed shaker at 37° C. and were quenched with 100 mM EDTA after 10 minutes. Samples were centrifuged and evaluated at 210 nm with HPLC using an acetonitrile gradient to determine apo-AcpP product formation. Michaelis-Menten kinetics were calculated using GraphPad Prism (GraphPad Software, La Jolla, Calif.).
E. coli holo-ACP was diluted into 50 mM TrisCl pH 8.0, 250 mM NaCl, 10% glycerol, 30 mM MgCl2 and 2 mM MnCl2 buffer to a concentration of 800 μM. […] AcpH was diluted from MOPS lysis buffer into 50 mM TrisCl pH 8.0, 250 mM NaCl, 10% glycerol and added to an equal volume of the holo-ACP serial dilution to initiate the reaction. Reaction tubes were transferred to a pre-warmed rack at 37° C. and shaken for the duration of the experiment. […] All samples were frozen at -80° C. until evaluated by HPLC.
Kinetics samples were mixed briefly with finger flicking, and centrifuged at 13000 rpm for 10 minutes at room temperature prior to transferring contents into HPLC vials. 20 μL of each reaction time point was injected on an Agilent 1100 series HPLC with column (Burdick & Jackson OD5 #9575, 25 cm×4.6 mm ID) using an acetonitrile/water gradient. Both water and acetonitrile contained 0.05% TFA. Method gradient for each injection: 0-5 min with 10% acetonitrile, 5-30 min with 10-100% acetonitrile, 30-35 min with 100% acetonitrile, 35-37 min with 100-10% acetonitrile, 37-40 min with 10% acetonitrile. HPLC-grade solvents (J. T. Baker, Phillipsburg, N.J.) were used exclusively. Apo- & holo-ACP protein standards were used to validate the retention times identified using 210 nm UV light at approximately 21 and 19 minutes, respectively. Peak integration was performed for all samples, and substrate turnover was calculated from the ratio of apo- to holo-ACP present in the HPLC trace and the known concentration of total ACP in reaction samples. Calculated rates for AcpH versus substrate concentration were obtained through Excel data analysis and graphed in Prism GraphPad using the “Michaelis-Menten” function for enzyme kinetics, with a zero data point added for substrate concentration of 0 μM*min-1 and 0 μM substrate for AcpH graphs.

B1: PaAcpH: acyl carrier protein hydrolase (AcpH) from P. aeruginosa PAO1, NP13 253043.1 (protein)
chain: MNYLAHLHLGGPQPAQLLGSLYGDFVKGRLQGQWPDEIERAIQLHRRIDAFTDSHPLVHAAKRRFPLERRRFAGVLLDVFFDHCLARDWNDYADEPLPQFVERVYGTLRTASPLPERLARIAPRMAAQDWLGSYREFAVLREVLGGMSRRLSRPHLLDGSWEELAQRYDDLSADFRAFYPQLQAFALSQR
- AcpH qualitative CP activity (P. falciparum ACP): YES
- AcpH qualitative CP activity (M. tuberculosis MAS): no
- AcpH qualitative CP activity (A. parasiticus PksA): YES
- AcpH qualitative CP activity (L majuscula JamC): YES
- AcpH qualitative CP activity (L majuscula JamF): no
- AcpH qualitative CP activity (P. agglomerans AdmI): no
- AcpH qualitative CP activity (A. orientalis CepK): no
- AcpH activity with PltL (P. fluorescens PltL; NRPS-type PCP, crypto-PltL): partial activity
- AcpH qualitative CP activity (P. fluorescens PltL; NRPS, crypto-CP (coumarin-PPant), overnight, 37° C., 1 μM AcpH): YES
- AcpH activity with modified ybbR peptide (YbbR13; YbbR13: N-term 6xHis, C-term GFP): no
- AcpH activity with modified ybbR peptide (YbbR13; YbbR13: N-term FITC, C-term N/A): no
- AcpH activity with modified ybbR peptide (YbbR13; YbbR13: N-term GFP, C-term 6xHis): no
- AcpH activity with modified ybbR peptide (YbbR13; YbbR13 free peptide: N-term N/A, C-term N/A): no
- Km (crypto-FITC-YbbR (3)): 177 µM
- Vmax (crypto-FITC-YbbR (3)): 0.008 ± 0.016 min⁻¹
- kcat (crypto-FITC-YbbR (3)): 0.008 ± 0.016 min⁻¹
- removal of rhodamine-PPT from ACP fusion proteins [1]: removed rhodamine-PPT
- AcpH qualitative CP activity (M. tuberculosis AcpM): YES
- AcpH qualitative CP activity (V. cholerae VibB): no
- Km (holo-ACP (E. coli)): 12 ± 2 µM
- Vmax (holo-ACP (E. coli)): 0.59 ± 0.02 min⁻¹
- kcat (holo-ACP (E. coli)): 0.6 min⁻¹ and 0.59 ± 0.02 min⁻¹
